From the domain aggregation screens of Martell et al. (2025)

Test: soluble fraction after stress (log2 fold change); higher = more stays soluble; pooled small domains, quantitative proteomics
Conditions: stress: 75 degC
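Note: 20 min heating vs room temperature control held 20 min.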

Sequence | soluble fraction (log2)
HMEDTSTLSIKHKIKELINQESPQAILSDDKLVELLAAQGIKIARRTIAKYRETMNIPTSAERKRQKRPP | 0.0599
HMEDVTLSLVVGEDLDGERLDVFLTWKLDRTRSQVQALIRDGKVRLEQGQRARPSMVVRSGMGISVSLEPR | -2.15
HMEDYYKILGVSKDASIDDIKKSYRKLSLQNHPDRNKSPQASENFAKINSAYEVLSDQRKKRQYDMQQSM | -0.073
HMEEAQWEFKWENTDSAEIHGPHSSSEMLKWQENSFFAKGVYVRKVGGDTTDFTDGKRIDFDLY | -0.705
HMEEDPILVAQRFLNIFRQLHIFDQQRREEFNSMILALPPEIRGTFGVLPGGSVLQEYVDELEISKGMA | -1.11
HMEEDPVISQAQRQALFKLAHDHFGQEEGNKVILRLIGEHGLRSTTNMTASVYKTVTDALIQVIESMVEG | -0.45
HMEEEDELALFLREERKNYDLTLTDVHEKTGIPQKVLKEFQWGDAQLTDRQRYTLTQYVEEAREYFQENA | 0.161
HMEEEVKVPKIKGLTEAEAKAKLKSEGLESGTARSAYSDTVEEGHIISQSIQEGTKVPKGTAVSYEVSKGK | 0.149
HMEEGKVKRMAMDMVDAFYDKVSAMVDDNNDLGRSVVDAWDDEEENPPEYMLDDETRAILVNAGKIEPE | 0.298
HMEEHSLRKQEMLRIIEALEQLTPKEKTVVVLYYFKGVLFKDIAMLLDVTEGRISQLHTAAMGRLKKLMD | -0.14
HMEEIDLTPAEEILNKLPDNSRGYLIPTLNKIQNAYRFLPDPAMELLMEFFNVSRAEIFGVISFYPQLMI | -0.127
HMEEIPYGVISAKAGAAAYDYIKKSIELGIEKKIDGVATAPIQKEAIHMAGISYIGHTEMYQGIT | 0.178
HMEEKEIGQTLSVKIRENVLSKLDMTRDLEDEEVKHIIEHEIWLAAKKHYISLEERNSIKRGIFNSL | -0.895
HMEELELTIDGEMVGRIDKQLGHHFDQFSRSQIQHWIEDGHVLVNGKQVKPKYKLLVGDHVQIIPEEPQK | 0.261
HMEELIIQEELANKRLDIAISLLFPELTRAHAQKLIKEGSVLVDGKPRKASYPLTAGKRLSVTLPEPE | -0.172
HMEELPVLHLKHVVVEGESLWKLAEQYLNDGTRWQEIYMLNRENISNPDLIREGQELNIQFLQGE | -0.382
HMEENIKKDIEVPNIEGLTIDEAKKRLKEVNLNISIEDMEEKEGTEIITQQLPKAGIKVKEGVAIIAY | 0.227
HMEEPEFEPYVVRLTAIALNVRTGPGTQYPVAMVIRGGGAFTIVAEENGFGLLKSGAGWIMLQHTERV | -2.61
HMEEQELQLIQFPIASGSAWAGKAVRELILPPETLLVMLIRGTETMIPKGDTMVQEGDTAVLSASAYRDD | -0.472
HMEEQKYEYHLGDVVYLGVDKYEILGITNNIVTLYDPEFPLLNKQLDFDEFEKRVKDNYANEHLKVT | -0.324
HMEERDMKGSISDLVERYADQLTDEQLEEIVLGIKNGLLEEDVKSYFFLPAEDMRRIRTALEQVR | 0.0219
HMEESEMIAFATVAHRIVGKPVEAVMRSYRNRDNIPADIAAIVSSKFTFSVTMAEASYRNPKKSYQVNSII | 0.275
HMEETLLLRESVRSALAMLAPTLRITLEMYVYRQLSPTEIALRSGVSISMVRRRLGYGLYKLRTQLIDA | -0.121
HMEFEIGQEDSKKSVKQFLYNTLRLSHGQVTALKRQERGILLNGERVFVTALLQEGDRLSLLLE | -1.7

Sequence | soluble fraction (log2)
HMEFFIIDHNGQQAGPFSFDQLVQKGISPETLVWKQGMADWNPAWKVEELKAVLEAVEANQSNQKAQ | ≥ 1.04
HMEFGEVLAQLRQKRHISQAELGRAIFVSGGTISNYEKGVHFPDVEKLLLLADYFNVTTDYLLGRT | -2.65
HMEFNQAVQDVNELSMQYAKSDVLWPEFEPKVLAFAKNELSQMPPNQWKFALQTFYNGLKQAA | -0.576
HMEFPLSPHQYSVLRLMAQGLSNKQIAERLFLSENTVKGYVQEVLRRLGARNRLEAVMIANRRGWL | -0.316
HMEFPYISGVDVGTISNKEFARFETTKASDIVIALDKSGIPFSARFGDSEIVLTYDGSYKEEVEEIIAKV | 0.172
HMEFSYMDQGLERYRAFLETHGHGNVPESYHELKLVNFVAHIRKLYRMNLLSEERRRALDEAGFVF | -2.5
HMEFVEERRNRMLDYIGENKRADVPELARHFDVTEVTIRRDLLILEQDGKLIRTHGGAMINR | -0.536
HMEGDKEIPNVIGKSINDAKKILEQAGLKLGEVKKVNDSSVAKNVVLSTNPNAGTKVSAGDAVSITVAEG | 0.106
HMEGGLIMDRIEKGLQSGVMPDLRGLNLKDALYLLESYVQVQVIGSGGVIKQSIKTGDKFIMGSVIKLEL | -0.138
HMEGLATRLRFLRQARGLSYHALARLSGVTHTALHQIEAGKNIPGLDTAEKIAMALDVDPRWFAYGRGDPS | -3.18
HMEGPALKVWKARYLRAAILEQLLSDRWDDRGGQPIRVVVNEPTNSLLIRIPRHLWPEAEKLLQELDQR | -2.34
HMEGTEILVNIRKGMTKEEIASLLVSKGLVEDKNTFLVQTALYTSDRYPIQPGSYTLNTAQTPEEMLAVMT | -0.0935
HMEGVNLTVQEAKQMAAIIAPLLKQGQSPYQIVTNHPELGISEKTLYNYIENDVFHEIAGITVMDL | -0.819
HMEHIVNELDRKVIDYLQSHYDAKLNDIAQGIGVSKATATKSIRKLVQTGIVHVVGSSGTGTSYNLTE | -0.465
HMEHVVFEVTESGELENNTAVKHVLNSFNNKSLNLAIDDFGTGYSNLRYIRDMMFGIIKIDRLFIKDINES | 0.324
HMEIDFDKINSIFNDANKLYEEGDYFEANNLYKNIVSSNIISKDLYYNLGLSYAKIGSNGYAILWYERALN | -0.0259
HMEIEEIDYGTFLQMVEDGVVEKIELTDTQIFLTSTVDNDDKVYTTGVMPDQDLTNRLIEAGVVNFGKVV | 0.134
HMEIFSIEPDSYLGSGEEIASYYREGVTVIVNMAKLSDAESLRMVDFMSGLKLALLGNIKRITKHVYLLTP | -0.0777
HMEIITIVSDINGKRIDAWLSEKLENYSRSFIQKLIQNENVKVNNNIVKANYKLKNGDAVAVSIPEPV | 0.179
HMEILNYVVSDGQSGIRIDRYLSDSNEDLSRSYIQKLLKEQKVTVQGTFVKANYKVQAGDVITVEVPDMA | -0.884
HMEILPAYRDIKKEALLGNINAEFKYVNLLLEHNYIEQAFNIIEDMKTRVDDNPEFEELKSRVADAYLMY | -1.56
HMEILTLEELKRLMAKAKLKQNQISGHAGVSKQQISMILAGKRNITKDVSDNLKANLAEYFP | -0.651
HMEILVSTRRHEIASLLSRKKRVSFFELFPEKTKEYVVATFLAILEMAKAREVNITQEDTFDEIIVEEA | -2.18
HMEIPTPAELREKRIRMGLKQADVARMAGISQSMVARIESGSVDPRVSTLAKIVEVLQAAER | -0.488

Sequence | soluble fraction (log2)
HMEISLEAKMAEVREQVRGLAGINFRTLLEMQASRSNIIVTFLAILELMKIGAIQIRQEEIFGEIIIDSRD | -0.104
HMEISPGDVFKQLPGIGDDLSRRVVESLGIQSLEELESAAHDGRLEQVEGFGERRVQMVRAVLTGMLS | -0.00517
HMEITTEDIAAQVASWIVRLSEDLTSTDRAALQIEFEQWQQTDSRRAEIAHKMLSLIGQAEQLRKT | -0.712
HMEKAISSLTLEEAKKRLEMVRSEKDASLQIYKETGSETARVTAENYGKEENSLLLHISEMSNIV | 0.425
HMEKFTGELSQEEKNVLDALSHEEMHVDIIIKLTKLETSAVSSTLSLLEIKGLIKNIGGQNYIK | 0.543
HMEKIIFEISEEGKRLDLYIAERTELTRTRIQQLIKDGNINVNNKKSKPSYKVEKNDFIEMIIPDE | -1.23
HMEKINLIIEEDNNLRLDKVIAMQLQELSRTQIQDMINQGLVLVNQKKEKASYKTKLNDEIEITILD | -1.13
HMEKKDTYTVKNGDSLWGIARTELGDGGRFREIYTLNADTIEAEAKKRGRSSSSEGHWIYPGSVLRLP | 0.304
HMEKKGTVVIATVKGDIHDIGKNIVKVLLENYGFDVIDLGKDVPPEAVVEAVQQSGARLVGLSALM | -0.898
HMEKKSKLVLAVLQGSDSDNTIRNLNERGFMVTVLSSTGGFLKKKSTTVMIGVEEDRLEEALDVLQKYAG | -0.549
HMEKKTILIPPVITVRALAEISQIPVNRLLQELIKNGVFTSINEKIDFDTAVIIGADLNLDIQLL | -1.86
HMEKLPRYILPGVPKVKSINISSALDGLVQDYSREFNISQKDIFQIALVEFFKKYGYHNAVKAVL | -2.29
HMEKLSMLKIKELFRLAIEMNLSHRQIAQSLNVSHTVVNRYLKRFKKSNLSYETLLKLGDKEIISALYEH | -3.67
HMEKPAQDVLASHREWMGEMIKAEHMTAKQVWRLLRERADIGVSYPTVKRYLRAHFQFGGPS | -1.57
HMEKRLDYTFGLNKEQLLYLTKSIKDGDFYNVSFIDGTEKKLNRVGSTKEVHKYVNFLMTNDGIVKK | -0.389
HMEKSLKELAQGVGQKVLTSGRPYHFDPMSAMERRVVHMTLMEMDGLRTESEGEGRFRHVVVFPA | -0.0884
HMEKTEQMQVILDYIARYGEINNEKVQEILGVKRTRAYTILKQMVENGFVTTNGRGEEKKYYSIR | -1.25
HMEKTIQIYDNIIIKDFAEKMEVSPSQVITKLIGLGVMANLNQPIDINSAVIVGKEFGFNVESM | -1.29
HMEKVLPFEFERKFKTNHTAWDFFSNQAPPSYRKTVIHWILSAKQEITRISRLEKLIAASEQQKRI | -0.518
HMEKYIVNQEEQGKRLDIYVVNKSSELTRTAVQRLIEQEHILVNGRKQKASYKVLEGDIITIERV | 0.753
HMEKYTDDLEIAAEIARLETLMEGNGRVLIRPSGTEPLVRVMIEGNDIEQITKLAEDLAALLNKRF | -0.717
HMELDFNSVYRQLNHEQKQAYQSIKSVLEQKISGSELDKKLKQAQQAFVAKFKENPNFEVPK | 0.608
